Measured values taken from patent US20240002501A1 (Memorial Sloan Kettering, published 2024).
Read-outs that look alike come from different tables or passages of the source. One block for each binder: values may come before it.

Columns and labels:
[1] = biological target: T1, L1-CAM on L1-CAM(+) human tumor cells (human, UniProt P32004 20-1257); assay: cell-based or functional assay
[2] = biological target: T1, L1-CAM on L1-CAM(+) human tumor cells; assay: cell-based or functional assay; remark: listed apart in the source
CD3 on CD3(+) T cells = biological target: T2, CD3 on CD3(+) T cells (UniProt P07766 23-207); assay: FACS immunostaining of CD3(+) T cells
T2 construct: whole, on cells; CD3 is a complex of several chains

L1-CAM-Fc [3] = biological target: T3, L1-CAM-Fc (UniProt P32004 20-1120, limits assumed); assay: SPR (Biacore T100), L1-CAM-Fc immobilised on CM5 chip
T3 construct: also called antigen L1-CAM-Fc; not shown: Fc part
Description: (§1) In Vitro Binding Kinetics by Biacore T-100 Biosensor (GE Healthcare, Uppsala, Sweden). CM5 sensor chip (Research grade) and related reagents were purchased from Biacore USA (Piscataway, NJ). Antigen L1-CAM-Fc or L1-CAM-His was directly immobilized onto the CM5 sensor chip according to the manufacturer's instructions. Purified monoclonal antibodies (MoAbs) (mouse, chimeric IgG1 and IgG4, and humanized IgG1 and IgG4 versions of E71 and E72, and their IgG1n glycoforms) were diluted in HBS-EP buffer at varying concentrations (41.7˜666.7 nM) prior to analysis. Samples were injected over the sensor surface at a flow rate of 30 μl/min over 1 min. Association time was set for 1 min, dissociation time was set for from 5 min to 15 min. At the end of each cycle, the surface was regenerated using 50 mM NaOH at a flow rate of 50 μl/min over 1 min. The data were analyzed by the bivalent analyte model and default parameter setting for the rate constants using the Biacore T-100 evaluation software, and the apparent association on rate constant (kₒₙ), dissociation off rate constant (koff) and equilibrium dissociation constant (Kd=koff/kₒₙ) were calculated.
The binding of huE71-BsAb and huE72-BsAb to both target cells and effector cells was tested by FACS immunostaining. huE71-BsAb was equally efficient as parental huE71 in binding to L1-CAM(+) neuroblastoma BE(2)C, whereas the binding of huE72-BsAb to BE(2)C was half of that observed with huE71-BsAb (FIG. 38(A)). For binding to CD3(+) T cells, both huE71-BsAb and huE72-BsAb were less efficient compared to huOKT3 IgG1; around 20 fold weaker than huOKT3 (FIG. 38(B)). The reduced avidity of the light chain-anchored scFv of the BsAbs for T cells was attributable in part to the spatial constraints of this format, but is advantageous for minimizing cytokine release especially when target cells were not present.

L1-CAM-Fc [4] = biological target: T3, L1-CAM-Fc; assay: as above; remark: listed apart in the source
Description: as §1

L1-CAM-His = biological target: T4, L1-CAM-His; assay: SPR (Biacore T100), L1-CAM-His immobilised on CM5 chip
T4 construct: recombinant soluble His-tagged antigen immobilised on the CM5 chip; also called antigen L1-CAM-His
Description: as §1

T4 sequence (P32004 20-1120): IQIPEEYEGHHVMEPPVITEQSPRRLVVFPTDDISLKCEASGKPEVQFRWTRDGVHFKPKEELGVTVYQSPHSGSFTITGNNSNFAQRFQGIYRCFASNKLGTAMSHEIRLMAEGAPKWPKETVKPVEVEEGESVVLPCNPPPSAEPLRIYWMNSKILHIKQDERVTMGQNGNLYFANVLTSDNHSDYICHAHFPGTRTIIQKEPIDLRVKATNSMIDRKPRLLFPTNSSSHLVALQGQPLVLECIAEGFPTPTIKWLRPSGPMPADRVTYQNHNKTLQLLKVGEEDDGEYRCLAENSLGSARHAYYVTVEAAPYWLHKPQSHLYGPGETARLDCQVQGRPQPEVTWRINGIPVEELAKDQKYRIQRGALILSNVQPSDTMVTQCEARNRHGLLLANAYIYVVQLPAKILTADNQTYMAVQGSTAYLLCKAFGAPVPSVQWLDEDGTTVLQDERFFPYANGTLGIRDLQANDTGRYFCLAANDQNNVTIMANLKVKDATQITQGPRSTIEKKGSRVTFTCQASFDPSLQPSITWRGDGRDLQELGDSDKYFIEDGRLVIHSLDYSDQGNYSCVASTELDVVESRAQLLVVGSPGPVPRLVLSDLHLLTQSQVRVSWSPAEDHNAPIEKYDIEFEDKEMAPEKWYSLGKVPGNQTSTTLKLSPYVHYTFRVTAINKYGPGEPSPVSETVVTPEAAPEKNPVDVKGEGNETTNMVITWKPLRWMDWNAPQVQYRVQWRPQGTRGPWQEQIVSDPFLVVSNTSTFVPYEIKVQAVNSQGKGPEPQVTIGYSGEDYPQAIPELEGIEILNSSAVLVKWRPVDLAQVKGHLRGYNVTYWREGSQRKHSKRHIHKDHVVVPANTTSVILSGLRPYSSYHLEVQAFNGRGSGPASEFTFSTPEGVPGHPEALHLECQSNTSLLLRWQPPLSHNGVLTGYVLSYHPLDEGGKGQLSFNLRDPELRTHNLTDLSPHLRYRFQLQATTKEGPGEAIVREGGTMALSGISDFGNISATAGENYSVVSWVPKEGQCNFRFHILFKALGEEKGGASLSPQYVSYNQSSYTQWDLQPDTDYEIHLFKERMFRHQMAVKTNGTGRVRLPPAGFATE
T3 sequence (P32004 20-1120 limits assumed): as the sequence (P32004 20-1120) above
T1 sequence (P32004 20-1257 limits assumed): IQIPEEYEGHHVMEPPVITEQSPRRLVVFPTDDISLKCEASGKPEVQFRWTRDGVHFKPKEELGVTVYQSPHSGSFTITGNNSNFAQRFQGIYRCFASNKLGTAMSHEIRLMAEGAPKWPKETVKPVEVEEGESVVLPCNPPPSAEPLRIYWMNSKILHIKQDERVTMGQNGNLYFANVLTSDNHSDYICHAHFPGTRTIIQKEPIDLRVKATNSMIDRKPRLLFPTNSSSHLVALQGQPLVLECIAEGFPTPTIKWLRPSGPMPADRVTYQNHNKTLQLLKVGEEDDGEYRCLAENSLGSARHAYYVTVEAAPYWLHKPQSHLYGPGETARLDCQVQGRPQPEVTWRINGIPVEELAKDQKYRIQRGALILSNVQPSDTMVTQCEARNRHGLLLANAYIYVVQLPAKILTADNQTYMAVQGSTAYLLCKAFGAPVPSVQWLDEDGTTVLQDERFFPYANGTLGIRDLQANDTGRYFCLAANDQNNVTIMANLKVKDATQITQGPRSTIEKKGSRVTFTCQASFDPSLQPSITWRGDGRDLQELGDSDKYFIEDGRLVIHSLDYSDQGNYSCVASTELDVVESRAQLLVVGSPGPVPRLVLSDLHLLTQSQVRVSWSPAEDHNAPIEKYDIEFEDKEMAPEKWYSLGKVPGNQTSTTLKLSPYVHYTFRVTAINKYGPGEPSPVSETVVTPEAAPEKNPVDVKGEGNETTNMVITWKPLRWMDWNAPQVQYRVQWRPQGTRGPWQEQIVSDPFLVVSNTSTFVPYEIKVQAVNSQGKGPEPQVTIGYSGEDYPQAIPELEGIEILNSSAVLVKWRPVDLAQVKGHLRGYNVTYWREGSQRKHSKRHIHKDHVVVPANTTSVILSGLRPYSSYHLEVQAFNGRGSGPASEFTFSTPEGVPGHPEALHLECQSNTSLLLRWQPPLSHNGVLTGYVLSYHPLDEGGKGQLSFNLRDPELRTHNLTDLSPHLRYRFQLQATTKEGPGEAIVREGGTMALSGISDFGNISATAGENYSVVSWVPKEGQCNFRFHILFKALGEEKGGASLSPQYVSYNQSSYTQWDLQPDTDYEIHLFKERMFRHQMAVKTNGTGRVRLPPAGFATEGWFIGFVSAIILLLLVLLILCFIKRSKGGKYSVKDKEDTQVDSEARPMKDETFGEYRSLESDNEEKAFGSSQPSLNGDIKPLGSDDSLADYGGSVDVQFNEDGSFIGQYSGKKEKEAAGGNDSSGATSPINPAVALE
T2 sequence (P07766 23-207): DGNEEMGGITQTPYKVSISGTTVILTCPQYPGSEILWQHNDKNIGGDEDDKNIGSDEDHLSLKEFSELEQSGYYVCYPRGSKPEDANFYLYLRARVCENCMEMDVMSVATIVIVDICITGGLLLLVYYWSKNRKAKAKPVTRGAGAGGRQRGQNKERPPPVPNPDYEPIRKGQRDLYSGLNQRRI

B1: huE72-BsAb (huE72-huOKT3) (bispecific antibody, human IgG1, kappa, N297A)
heavy: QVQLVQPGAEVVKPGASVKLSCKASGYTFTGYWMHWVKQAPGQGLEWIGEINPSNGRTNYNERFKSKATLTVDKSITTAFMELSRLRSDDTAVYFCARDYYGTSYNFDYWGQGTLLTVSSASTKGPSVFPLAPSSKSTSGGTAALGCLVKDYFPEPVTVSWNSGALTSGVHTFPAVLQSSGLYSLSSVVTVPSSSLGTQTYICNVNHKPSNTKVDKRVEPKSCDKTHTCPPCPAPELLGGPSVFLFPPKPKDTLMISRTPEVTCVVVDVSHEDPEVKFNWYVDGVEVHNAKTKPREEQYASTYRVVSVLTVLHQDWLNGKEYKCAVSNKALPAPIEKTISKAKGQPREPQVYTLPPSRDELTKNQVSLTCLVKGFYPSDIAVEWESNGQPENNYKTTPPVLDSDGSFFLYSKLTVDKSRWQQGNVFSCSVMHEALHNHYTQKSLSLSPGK
light: DIQMTQSPSSLSVSVGDRVTITCKANEDINNRLAWYQQKPGKAPKLLISGATNLVTGVPSRFSGSGSGTDYTLTISSLQPEDFATYYCQQYWSTPFTFGQGTELEIKRTVAAPSVFIFPPSDEQLKSGTASVVCLLNNFYPREAKVQWKVDNALQSGNSQESVTEQDSKDSTYSLSSTLTLSKADYEKHKVYACEVTHQGLSSPVTKSFNRGECTSGGGGSGGGGSGGGGSQVQLVQSGGGVVQPGRSLRLSCKASGYTFTRYTMHWVRQAPGKCLEWIGYINPSRGYTNYNQKFKDRFTISRDNSKNTAFLQMDSLRPEDTGVYFCARYYDDHYSLDYWGQGTPVTVSSGGGGSGGGGSGGGGSGGGGSGGGGSGGGGSDIQMTQSPSSLSASVGDRVTITCSASSSVSYMNWYQQTPGKAPKRWIYDTSKLASGVPSRFSGSGSGTDYTFTISSLQPEDIATYYCQQWSSNPFTFGCGTKLQITR
notes: IgG-scFv format with huOKT3 scFv on the light chain; also called humanized E72-BsAb
T cell cytotoxicity EC50, 4-hour 51Cr release assay, activated T cells (E:T ratio=10:1), IMR32-luciferase cell line [1]: 0.05 nM
EC50 of T cell cytotoxicity (4 h 51Cr release, E:T 10:1) on BE(1)N neuroblastoma cells (L1CAM MFI 614) [2]: 0.014 nM
EC50 of T cell cytotoxicity (4 h 51Cr release, E:T 10:1) on BE(2)C neuroblastoma cells (L1CAM MFI 608) [2]: 0.05 nM
EC50 of T cell cytotoxicity (4 h 51Cr release, E:T 10:1) on BE(2)S neuroblastoma cells (L1CAM MFI 166) [2]: 0.251 nM
EC50 of T cell cytotoxicity (4 h 51Cr release, E:T 10:1) on HTB24 breast CA cells (L1CAM MFI 431) [2]: 0.027 nM
EC50 of T cell cytotoxicity (4 h 51Cr release, E:T 10:1) on HTB26 breast CA cells (L1CAM MFI 33) [2]: 0.056 nM
EC50 of T cell cytotoxicity (4 h 51Cr release, E:T 10:1) on IMR32 LUC neuroblastoma cells (L1CAM MFI 285) [2]: 0.05 nM
EC50 of T cell cytotoxicity (4 h 51Cr release, E:T 10:1) on MCF7 breast CA cells (L1CAM MFI 54) [2]: 0.1 nM
EC50 of T cell cytotoxicity (4 h 51Cr release, E:T 10:1) on NB1691 neuroblastoma cells (L1CAM MFI 742) [2]: 0.031 nM
EC50 of T cell cytotoxicity (4 h 51Cr release, E:T 10:1) on NMB7 neuroblastoma cells (L1CAM MFI 224) [2]: 0.046 nM
EC50 of T cell cytotoxicity (4 h 51Cr release, E:T 10:1) on SKMEL5 melanoma cells (L1CAM MFI 269) [2]: 0.027 nM
EC50 of T cell cytotoxicity (4 h 51Cr release, E:T 10:1) on SKMEL28 melanoma cells (L1CAM MFI 184) [2]: 0.14 nM
EC50 of T cell cytotoxicity (4 h 51Cr release, E:T 10:1) on SKNMM LUC neuroblastoma cells (L1CAM MFI 598) [2]: 0.071 nM
EC50 of T cell cytotoxicity (4 h 51Cr release, E:T 10:1) on SKNSH neuroblastoma cells (L1CAM MFI 23) [2]: 0.158 nM
fold weaker binding than huOKT3 IgG1 (CD3 on CD3(+) T cells): ~20 fold
Kd (L1-CAM-Fc [3]): 5.28 nM
koff (L1-CAM-Fc [3]): 0.000189 s⁻¹
kon (L1-CAM-Fc [3]): 35800 M⁻¹ s⁻¹

B2: huE71-H2L2 (antibody, human IgG1, kappa, V domains shown)
VH: QVQLVQSGSELKKPGASVKLSCKASGYTFTSYWMQWVRQAPGQGLEWIGEINPSNGRTNYNEMFKSRAVLSVDTSVSTAYMQLCSLKAEDTAVYYCALYDGYYAMDYWGQGTLVTVSS
VL: DIVMTQSPDSLAVSLGERVTMNCKSSQSLLYSSNQKNYLAWYQQKPGQPPKLLIYWASTRESGVPDRFSGSGSGTDFTLTISSLQAEDVALYYCQQYHSYPFTFGQGTKLEIKR
Kd (L1-CAM-Fc [4]): 2.72 nM

B4: huE71-H2L1 (antibody, human IgG1, kappa, V domains shown)
VH: QVQLVQSGSELKKPGASVKLSCKASGYTFTSYWMQWVRQAPGQGLEWIGEINPSNGRTNYNEMFKSRAVLSVDTSVSTAYMQLCSLKAEDTAVYYCALYDGYYAMDYWGQGTLVTVSS
VL: DIVMTQSPSSLAVSVGERVTMSCKSSQSLLYSSNQKNYLAWYQQKPGQSPKLLIYWASTRESGVPDRFSGSGSGTDFTLTISSVKAEDVALYYCQQYHSYPFTFGQGTKLEIKR
Kd (L1-CAM-Fc [4]): 4.26 nM

B5: huE71-H1L2 (antibody, human IgG1, kappa, V domains shown)
VH: QVQLVQPGDELVKPGASVKLSCKASGYTFTSYWMQWVKQRPGQGLEWIGEINPSNGRTNYNEMFKSKAVLSVDKSVSTAYMQLSSLTAEDTAVYYCALYDGYYAMDYWGQGTLVTVSS
VL: DIVMTQSPDSLAVSLGERVTMNCKSSQSLLYSSNQKNYLAWYQQKPGQPPKLLIYWASTRESGVPDRFSGSGSGTDFTLTISSLQAEDVALYYCQQYHSYPFTFGQGTKLEIKR
Kd (L1-CAM-Fc [4]): 0.517 nM

B6: huE72-IgG1 (huE72 H1/L2) (antibody, V domains shown)
VH: QVQLVQPGAEVVKPGASVKLSCKASGYTFTGYWMHWVKQAPGQGLEWIGEINPSNGRTNYNERFKSKATLTVDKSITTAFMELSRLRSDDTAVYFCARDYYGTSYNFDYWGQGTLLTVSS
VL: DIQMTQSPSSLSVSVGDRVTITCKANEDINNRLAWYQQKPGKAPKLLISGATNLVTGVPSRFSGSGSGTDYTLTISSLQPEDFATYYCQQYWSTPFTFGQGTELEIKR
notes: Human IgG1; also called humanized E72 IgG1
Kd (L1-CAM-Fc [4]): 0.252 nM
Kd (L1-CAM-Fc [3]): 1.88 nM
koff (L1-CAM-Fc [3]): 0.000139 s⁻¹
kon (L1-CAM-Fc [3]): 74000 M⁻¹ s⁻¹
Kd (L1-CAM-His): 0.27 nM

B9: E72-H1L1 (antibody, human IgG1, kappa, V domains shown)
VH: QVQLVQPGAEVVKPGASVKLSCKASGYTFTGYWMHWVKQAPGQGLEWIGEINPSNGRTNYNERFKSKATLTVDKSITTAFMELSRLRSDDTAVYFCARDYYGTSYNFDYWGQGTLLTVSS
VL: DIQMTQSSSSFSVSVGDRVTITCKANEDINNRLAWYQQKPGKSPRLLISGATNLVTGVPSRFSGSGSGTDYTLTISSLQAEDFATYYCQQYWSTPFTFGQGTELEIKR
notes: also called huE72 H1/L1
Kd (L1-CAM-Fc [4]): 0.0893 nM
Kd (L1-CAM-His): 0.114 nM

Continued by falling Kd (L1-CAM-Fc [4]), values first:

Kd (L1-CAM-Fc [4]): 0.536 nM
Kd (L1-CAM-His): 0.667 nM
B8: E72-H2L2 (antibody, human IgG1, kappa, V domains shown)
VH: QVQLVQPGAEVKKPGASVKLSCKASGYTFTGYWMHWVRQAPGQGLEWIGEINPSNGRTNYNERFKSRATLTVDKSISTAYMELSRLRSDDTAVYFCARDYYGTSYNFDYWGQGTLLTVSS
VL: DIQMTQSPSSLSVSVGDRVTITCKANEDINNRLAWYQQKPGKAPKLLISGATNLVTGVPSRFSGSGSGTDYTLTISSLQPEDFATYYCQQYWSTPFTFGQGTELEIKR
notes: also called huE72 H2/L2

Kd (L1-CAM-Fc [4]): 0.353 nM
Kd (L1-CAM-His): 0.355 nM
B7: E72-H2L1 (antibody, human IgG1, kappa, V domains shown)
VH: QVQLVQPGAEVKKPGASVKLSCKASGYTFTGYWMHWVRQAPGQGLEWIGEINPSNGRTNYNERFKSRATLTVDKSISTAYMELSRLRSDDTAVYFCARDYYGTSYNFDYWGQGTLLTVSS
VL: DIQMTQSSSSFSVSVGDRVTITCKANEDINNRLAWYQQKPGKSPRLLISGATNLVTGVPSRFSGSGSGTDYTLTISSLQAEDFATYYCQQYWSTPFTFGQGTELEIKR
notes: also called huE72 H2/L1

Kd (L1-CAM-Fc [4]): 0.314 nM
Kd (L1-CAM-Fc [3]): 2.23 nM
koff (L1-CAM-Fc [3]): 0.000199 s⁻¹
kon (L1-CAM-Fc [3]): 89300 M⁻¹ s⁻¹
B3: E71 (antibody, V domains shown)
VH: QVQLQQPGDELVKPGASVKLSCKASGYTFTSYWMQWVKQRPGQGLEWIGEINPSNGRTNYNEMFKSKATLTVDKSSSTAYMQLSSLTSEDSAVYYCALYDGYYAMDYWGQGTSVTVSS
VL: DIVMSQSPSSLAVSVGEKVTMSCKSSQSLLYSSNQKNYLAWYQQKPGQSPKLLIYWASTRESGVPDRFTGSGSGTDFTLTISSVKAEDLALYYCQQYHSYPFTFGSGTKLEIK
notes: parental murine anti-L1-CAM antibody; also called mouse E71; murine E71; copies: 2 + 2
